Assay results reported in the supplement of paper PMC10126150.
± gives the standard deviation of the averaged measurements.

Tested on: ATP
Test: switch fluorescence ratio, 500 uM ATP over buffer (Cy3 cluster intensity, sum of 5 cycles each) (fold (ratio)); higher = stronger signal-on switching upon ATP binding; sequences stand for … in TCGTCGGCAGCGTCAGATGTGTATAAGAGACAGTTTTTTTTTTTTTTTTTTTTTTTTT…TC
Conditions: aptamer strand: ATP DNA aptamer (quencher-CACCTGGGGGAGTATTGCGGAGGAAGG + anchor), 100 nM annealed; ATP concentration: 500 uM
Procedure, shortened: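 For every switch-domain sequence, the fluorescence ratio is the mean of per-cluster values, each being summed target-cycle Cy3 intensity over summed buffer-cycle Cy3 intensity. Clusters outside 100-1000 RFU were excluded. On a modified Illumina MiSeq flow-cell, the Cy3-labelled switching-strand clusters were annealed to 100 nM quencher-labelled ATP aptamer, imaged in selection buffer and then after 15 min with 500 uM ATP at 22 °C. Five such cycles were run, with NaOH stripping and re-annealing between them.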
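Also: ATP exposure 15 min at 22 °C before imaging.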

## GAGTAAGTA
  switch fluorescence ratio: 1.002 ± 0.0064

## TGCTGTGTTT
  switch fluorescence ratio: 1.02 ± 0.039

## ACGCCCTTTT
  switch fluorescence ratio: 1.05 ± 0.052

## GAACTAGGGC
  switch fluorescence ratio: 1.02 ± 0.1

## TTTCATCGTA
  switch fluorescence ratio: 0.99 ± 0.049

## TTTTGCGTTT
  switch fluorescence ratio: 0.992 ± 0.07

## TTAGTTTATG
  switch fluorescence ratio: 0.981 ± 0.017

## AAGTCGTTCG
  switch fluorescence ratio: 0.989 ± 0.016

## GGGGGAGGAT
  switch fluorescence ratio: 1.03 ± 0.057

## GCCGGGACGC
  switch fluorescence ratio: 1.05 ± 0.049

## GCGTGGAGA
  switch fluorescence ratio: 1 ± 0.03

## TATATGGCGT
  switch fluorescence ratio: 0.989 ± 0.019

## GGGATAGATT
  switch fluorescence ratio: 1.028 ± 0.008

## AGTGACGGTA
  switch fluorescence ratio: 1.04 ± 0.042

## GCATCTTCAC
  switch fluorescence ratio: 1.0378 ± 0.00044

## AGAGATTCGG
  switch fluorescence ratio: 1.012 ± 0.01

## AAATTGAAAT
  switch fluorescence ratio: 1.01 ± 0.031

## CGTTTAATCA
  switch fluorescence ratio: 0.982 ± 0.018

## CGGGAATTAG
  switch fluorescence ratio: 1.01 ± 0.035

## GGACGCCTTG
  switch fluorescence ratio: 0.976 ± 0.029

## GGGATACTTA
  switch fluorescence ratio: 1.02 ± 0.04

## CAATATTTG
  switch fluorescence ratio: 0.994 ± 0.015

## TCACCATTCA
  switch fluorescence ratio: 1.052 ± 0.0059

## GTCGTATGAC
  switch fluorescence ratio: 1.08 ± 0.042

## CAGATTTGGG
  switch fluorescence ratio: 1.01 ± 0.035

## AGGTTGAGGT
  switch fluorescence ratio: 1.08 ± 0.12

## TAACTTGCTC
  switch fluorescence ratio: 1.05 ± 0.054

## TGGGTGCGGT
  switch fluorescence ratio: 0.991 ± 0.012

## ATTTTTTGGC
  switch fluorescence ratio: 0.996 ± 0.01

## TATGATGCAT
  switch fluorescence ratio: 0.991 ± 0.028

## TGGTTGTACG
  switch fluorescence ratio: 1.01 ± 0.027

## CCGCCGAGGT
  switch fluorescence ratio: 1.68 ± 0.034

## GGTTTATGGG
  switch fluorescence ratio: 0.975 ± 0.037

## GCTCTATAAT
  switch fluorescence ratio: 1.03 ± 0.0044

## AAAGAAATTG
  switch fluorescence ratio: 1.01 ± 0.035

## TCGTAATCGC
  switch fluorescence ratio: 1.4113 ± 0.0014

## TAATTAAATA
  switch fluorescence ratio: 1.04 ± 0.038

## GGACAATATA
  switch fluorescence ratio: 1.003 ± 0.0016

## TATCTTTTTC
  switch fluorescence ratio: 1.04 ± 0.084

## TGTGAAACAA
  switch fluorescence ratio: 1.01 ± 0.03

## TTGTCCGTAG
  switch fluorescence ratio: 1.0583 ± 0.00024

## ATTAAGTTTT
  switch fluorescence ratio: 1 ± 0.028

## GTTTAAAGTG
  switch fluorescence ratio: 1 ± 0.026

## AGGGACAACT
  switch fluorescence ratio: 1.08 ± 0.0015

## GGGACACGGT
  switch fluorescence ratio: 0.987 ± 0.023

## GGGGCTGCTT
  switch fluorescence ratio: 0.9718 ± 0.0035

## GGGGGCTGCC
  switch fluorescence ratio: 0.986 ± 0.011

## GGCAGCTGGG
  switch fluorescence ratio: 0.946 ± 0.023

## AGTCTAACTC
  switch fluorescence ratio: 1.02 ± 0.019

## GATTGAATGG
  switch fluorescence ratio: 0.985 ± 0.055

## TATGGCCCGG
  switch fluorescence ratio: 1.02 ± 0.0014

## TTTCATGTGG
  switch fluorescence ratio: 0.995 ± 0.044

## CGGTTCGGAT
  switch fluorescence ratio: 0.989 ± 0.017

## GATAAACGAT
  switch fluorescence ratio: 1.02 ± 0.031

## TTTCGCGGTT
  switch fluorescence ratio: 1.02 ± 0.043

## TTAGCTTCTT
  switch fluorescence ratio: 1.07 ± 0.066

## GGTGTTTGGG
  switch fluorescence ratio: 1 ± 0.039

## AGCTTTGGGG
  switch fluorescence ratio: 1.02 ± 0.018

## GTAATCTCTG
  switch fluorescence ratio: 1.01 ± 0.028

## TTCCGAGTTT
  switch fluorescence ratio: 1.15 ± 0.19

## AAAACGTTTG
  switch fluorescence ratio: 1.025 ± 0.0023

## AGAAAATATT
  switch fluorescence ratio: 1.004 ± 0.0076

## GGGTGCGGAC
  switch fluorescence ratio: 1.01 ± 0.042

## TTTATCCGGT
  switch fluorescence ratio: 1.01 ± 0.042

## ATTGGAGGGT
  switch fluorescence ratio: 0.979 ± 0.025

## GTTTGGTGTG
  switch fluorescence ratio: 0.975 ± 0.033

## ACTTTGTTTT
  switch fluorescence ratio: 1 ± 0.022

## ATAGACGTTA
  switch fluorescence ratio: 1.07 ± 0.049

## TCCGTGGGTG
  switch fluorescence ratio: 1.38 ± 0.21

## AGATTCATTT
  switch fluorescence ratio: 0.984 ± 0.021

## GGGGTGTAGG
  switch fluorescence ratio: 0.993 ± 0.024

## GAAAGTAGGA
  switch fluorescence ratio: 1.02 ± 0.029

## GTGTATACAT
  switch fluorescence ratio: 0.977 ± 0.066

## AAATTGGCAG
  switch fluorescence ratio: 1.06 ± 0.16

## CGAGTTATTG
  switch fluorescence ratio: 1.08 ± 0.094

## GGCGTAATTG
  switch fluorescence ratio: 1 ± 0.032

## CTCAGGTGGC
  switch fluorescence ratio: 1.04 ± 0.053

## AGGCTACGTC
  switch fluorescence ratio: 0.9925 ± 0.0061

## CGTTCGATGC
  switch fluorescence ratio: 1.21 ± 0.042

## AGTCATCGGG
  switch fluorescence ratio: 0.9728 ± 0.0011

## CGCTGGGGGC
  switch fluorescence ratio: 1.03 ± 0.016

## ATATTCGTG
  switch fluorescence ratio: 0.985 ± 0.013

## TGCTTTGGGG
  switch fluorescence ratio: 0.982 ± 0.071

## TGTGTGCTGA
  switch fluorescence ratio: 1.02 ± 0.028

## CCCGGGAGTG
  switch fluorescence ratio: 1.02 ± 0.028

## CGGGAAGGCC
  switch fluorescence ratio: 0.98791 ± 0.00011

## TCATCTTAAT
  switch fluorescence ratio: 0.992 ± 0.044

## TATATGATGG
  switch fluorescence ratio: 0.982 ± 0.024

## ACAATAACAC
  switch fluorescence ratio: 1.095 ± 0.0093

## CGCCGTTGCG
  switch fluorescence ratio: 0.989 ± 0.065

## TTGAAAAATG
  switch fluorescence ratio: 1.03 ± 0.028

## TGTGTCAATT
  switch fluorescence ratio: 0.9841 ± 0.0092

## GGGCAAAGGA
  switch fluorescence ratio: 0.993 ± 0.011

## TAGAGCACGG
  switch fluorescence ratio: 1.02 ± 0.012

## GTTCGGCGGC
  switch fluorescence ratio: 0.991 ± 0.016

## GGCTGTTGGG
  switch fluorescence ratio: 0.978 ± 0.012

## TACGTCCCCG
  switch fluorescence ratio: 1.03 ± 0.04

## TGGGGGTACT
  switch fluorescence ratio: 1.01 ± 0.011

## CGAAAAAGAT
  switch fluorescence ratio: 1.04 ± 0.079

## CGGCAGTGTG
  switch fluorescence ratio: 1.01 ± 0.048
